Reference: patent US20210380703A1 (RIGEL PHARMACEUTICALS, published 2021)
Substitutions are numbered along the chain they refer to.

B1: 365_A07 (antibody, V domains shown)
VH: EVQLLESGGGLVQPGGSLRLSCAASGFTFSSYGMNWVRQAPGKGLEWVAGINYNSGYKGYADSVKGRFTISRDNSKNTLYLQMNSLRAEDTAVYYCARSATWHDTHLDYWGQGTLVTVSS
VL: DIQMTQSPSSLSASVGDRVTITCRASQSIVSYLNWYQQKPGKAPKLLIYAATSRASGVPSRFSGSGSGTDFTLTISSLQPEDFATYYCQQSYNLPLTFGGGTKVEIK
notes: VH/VL only
B2: 365_E02 (antibody, V domains shown)
VH: B1 VH with G33S, G50N, S55G, K58T, G59S, R98K
VL: B1 VL with V30I, N93E, L94N
notes: VH/VL only
B3: 366_C02 (antibody, V domains shown)
VH: B1 VH with S31D, G33S, G50N, S55G, K58T
VL: B1 VL with N93D, L94N
notes: VH/VL only
B4: 367_C03 (antibody, V domains shown)
VH: B1 VH with G33S, G50N, S55G, K58T, H106A
VL: B1 VL with V30L, L33V, L47V, A51T, N93E, L94N
notes: VH/VL only
B5: 366_A05 (antibody, V domains shown)
VH: B1 VH with G33S, K58T
VL: B1 VL with V30L, S31T, L33V, L47V, R54L, L94T
notes: VH/VL only
B6: 365_B03 (antibody, V domains shown)
VH: B1 VH with G33S, S55G, K58T
VL: B1 VL with N93E, L94N
notes: VH/VL only
B7: 365_F04 (antibody, V domains shown)
VH: B1 VH with S55G, K58T
VL: B1 VL with S31T, L33V, N93D, L94T
notes: VH/VL only
B8: 367_E02 (antibody, V domains shown)
VH: B1 VH with S30D, G33S, S55G, K58T
VL: not shown
notes: VH/VL only
B9: 367_F05 (antibody, V domains shown)
VH: B1 VH with G50S, S55G, K58T, H106A
VL: B1 VL with V30L, L33V, N93S, L94S
notes: VH/VL only
B10: 366_H05 (antibody, V domains shown)
VH: B1 VH with S30D, N35H, G50S, S55G, K58T, G59S
VL: B1 VL with V30L, L33V, R54L, N93D
notes: VH/VL only
B11: 367_F02 (antibody, V domains shown)
VH: B1 VH with S30D, G33S, G50N, S55G, K58T, G59S
VL: B1 VL with V30I, L33V, A55H, N93E, L94S
notes: VH/VL only
B12: 365_C09 (antibody, V domains shown)
VH: B1 VH with S31D, A49S, S55G, G59S
VL: B1 VL with L33V, N93D, L94T
notes: VH/VL only
B13: 365_F08 (antibody, V domains shown)
VH: B1 VH with S30D, S31D, G50N, S55G, K58T, G59S
VL: B1 VL with V30L, L33V, A55H, N93S
notes: VH/VL only
B14: 368_E11 (antibody, V domains shown)
VH: B1 VH with S30D, N35H, G50N, S55G, K58T, G59S
VL: B1 VL with V30I, L33V, A55H, N93E
notes: VH/VL only
B15: 366_D02 (antibody, V domains shown)
VH: B1 VH with G33S, G50S, S55G, K58T, G59S
VL: B1 VL with V30L, L33V, A51T, R54L, N93D
notes: VH/VL only
B16: 367_A01 (antibody, V domains shown)
VH: B1 VH with G33S, G50S, S55G, K58T
VL: B1 VL with V30L, S31T, N93D
notes: VH/VL only
B17: 365_A10 (antibody, V domains shown)
VH: B1 VH with N35H, K58T, G59S
VL: B1 VL with V30L, S31T, L47V, A51V, R54L, N93D, L94S
notes: VH/VL only
B18: 368_G05 (antibody, V domains shown)
VH: B1 VH with S30D, G33S, S55G, K58T, G59S
VL: B1 VL with V30L, S31T, L33V, R54L, A55H, L94T
notes: VH/VL only
B19: 366_D07 (antibody, V domains shown)
VH: not shown
VL: B1 VL with V30L, S31T, R54L, N93S, L94S
notes: VH/VL only
B20: 367_A09 (antibody, V domains shown)
VH: B1 VH with S30D, S55G, K58T, G59S
VL: B1 VL with V30L, L33V, L47V, A55H, N93D, L94T
notes: VH/VL only
B21: 368_C06 (antibody, V domains shown)
VH: B1 VH with S30D, G33S, S55G, G59S
VL: not shown
notes: VH/VL only
B22: 365_B09 (antibody, V domains shown)
VH: B1 VH with S30D, G33S, G59S
VL: B1 VL with V30L, S31R, R54L, A55H, N93D, L94N
notes: VH/VL only
B23: 365_C07 (antibody, V domains shown)
VH: B1 VH with S31D, G50S, S55G, K58T, G59S, H106A
VL: B1 VL with L33V, N93D, L94T
notes: VH/VL only
B24: 368_D10 (antibody, V domains shown)
VH: B1 VH with S30D, K58T, G59S, H106A
VL: B1 VL with V30L, L47V, N93D, L94S
notes: VH/VL only
B25: 366_A03 (antibody, V domains shown)
VH: B1 VH with S30D, G33S
VL: B1 VL with V30S, R54L, N93S, L94N
notes: VH/VL only
B26: 366_C01 (antibody, V domains shown)
VH: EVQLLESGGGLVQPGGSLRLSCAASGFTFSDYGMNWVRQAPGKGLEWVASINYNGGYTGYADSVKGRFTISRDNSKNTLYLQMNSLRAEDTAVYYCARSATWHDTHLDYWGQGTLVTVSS
VL: B1 VL with S31T, R54P, N93E
notes: VH/VL only
B27: 366_A09 (antibody, V domains shown)
VH: B1 VH with S31D, N35H, G50S, K58T, G59S
VL: B1 VL with V30L, S31T, A55H, N93E, L94T
notes: VH/VL only
B28: 365_D05 (antibody, V domains shown)
VH: B1 VH with S30D, G33S, S55G, K58T, G59S
VL: B1 VL with V30L, S31T, L33V, L94S
notes: VH/VL only
B29: 368_C01 (antibody, V domains shown)
VH: B1 VH with S30D, S55G, K58T, H106A
VL: B1 VL with V30I, S31T, N93D, L94S
notes: VH/VL only
B30: 365_G12 (antibody, V domains shown)
VH: B1 VH with K58T, G59S, H106A
VL: B1 VL with V30L, L33V, L47V, N93S, L94N
notes: VH/VL only
B31: 365_F07 (antibody, V domains shown)
VH: B1 VH with G33S, A49S, G50N, S55G, G59S, H106A
VL: B1 VL with V30L, L33V, L47V, N93D
notes: VH/VL only
B32: 367_H07 (antibody, V domains shown)
VH: B1 VH with G33S, G50N, S55G, K58T, H106A
VL: B1 VL with V30L, L33V, L47V, A51T, N93E, L94N
notes: VH/VL only
B33: 367_G07 (antibody, V domains shown)
VH: B1 VH with S30D, G33S, G50N, S55G, K58T
VL: B1 VL with V30L, S31T, L33V, N93D, L94N
notes: VH/VL only
B34: 366_B04 (antibody, V domains shown)
VH: B1 VH with S30D, G33S, S55G
VL: B1 VL with V30L, S31T, L33V, L47V, A55H, N93D, L94T
notes: VH/VL only
B35: 368_F12 (antibody, V domains shown)
VH: B1 VH with S30D, S31D, G33S, G50S, G59S
VL: B1 VL with S31T, L47V, R54L, N93D
notes: VH/VL only

How the values were obtained:
[1] = target: T1, biotinylated goat anti-human kappa light chain; assay: ELISA; positive control
T1 construct: Positive control of the ELISA
Method in brief: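 ELISA measured binding of ACVR2A-specific monoclonal antibodies to human and mouse ACVR2A. Biotinylated goat anti-human kappa light chain served as positive control and human Fc as negative control.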

[2] = target: human ACVR2A (human, UniProt P27037 20-135, limits assumed); assay: ELISA
Method in brief: (§1)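 mAb binding by ELISA; antigens: hu ACVR2A, mu ACVR2A; pos ctrl biotinylated goat anti-hu kappa LC; neg ctrl hu Fc.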

[3] = target: mouse ACVR2A (mouse, UniProt P27038 20-135, limits assumed); assay: ELISA
Method in brief: as §1
Further: test concentration or dose not given here.

Sequence of human ACVR2A (P27037 20-135 limits assumed): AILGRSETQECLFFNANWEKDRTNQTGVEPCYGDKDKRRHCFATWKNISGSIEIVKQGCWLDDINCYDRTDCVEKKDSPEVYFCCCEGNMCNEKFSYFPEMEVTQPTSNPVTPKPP
Sequence of mouse ACVR2A (P27038 20-135 limits assumed): as the sequence (P27037 20-135 limits assumed) above, with K20R, V73I counted along it

| optical density [1] | optical density [2] | optical density [3] | Binder |
| --- | --- | --- | --- |
| 3.41 OD | 2.24 OD | 2.25 OD | B1 |
| 3.5 OD | 2.45 OD | 2.61 OD | B2 |
| 3.43 OD | 3.03 OD | 3.04 OD | B3 |
| 3.51 OD | 2.3 OD | 2.81 OD | B4 |
| 3.48 OD | 2.62 OD | 2.6 OD | B5 |
| 3.38 OD | 2.65 OD | 2.53 OD | B6 |
| 3.47 OD | 2.26 OD | 2.51 OD | B7 |
| 3.44 OD | 1.87 OD | 2.03 OD | B8 |
| 3.44 OD | 2.27 OD | 2.48 OD | B9 |
| 3.47 OD | 2.44 OD | 2.74 OD | B10 |
| 3.52 OD | 2.38 OD | 2.27 OD | B11 |
| 3.27 OD | 2.05 OD | 2.18 OD | B12 |
| 3.63 OD | 2.25 OD | 2.61 OD | B13 |
| 3.73 OD | 2.57 OD | 2.92 OD | B14 |
| 3.57 OD | 2.27 OD | 2.55 OD | B15 |
| 3.51 OD | 3.18 OD | 3.28 OD | B16 |
| 3.45 OD | 2.19 OD | 2.49 OD | B17 |
| 3.35 OD | 2.17 OD | 2.42 OD | B18 |

| optical density [1] | optical density [2] | optical density [3] | Binder |
| --- | --- | --- | --- |
| 3.38 OD | 2.41 OD | 2.62 OD | B19 |
| 3.45 OD | 2.18 OD | 2.41 OD | B20 |
| 3.52 OD | 0.738 OD | 1.03 OD | B21 |
| 3.28 OD | 3.26 OD | 3.32 OD | B22 |
| 3.17 OD | 1.94 OD | 1.92 OD | B23 |
| 3.26 OD | 2.25 OD | 2.45 OD | B24 |
| 3.31 OD | 1.15 OD | 1.12 OD | B25 |
| 3.6 OD | 2.31 OD | 2.41 OD | B26 |
| 3.28 OD | 1.79 OD | 1.93 OD | B27 |
| 3.51 OD | 2.58 OD | 2.72 OD | B28 |
| 3.71 OD | 2.61 OD | 2.92 OD | B29 |
| 3.55 OD | 2.74 OD | 2.75 OD | B30 |
| 3.39 OD | 3.12 OD | 3.18 OD | B31 |
| 3.46 OD | 2.72 OD | 2.68 OD | B32 |
| 3.29 OD | 3.02 OD | 3.2 OD | B33 |
| 3.4 OD | 2.81 OD | 3.05 OD | B34 |
| 3.52 OD | 1.69 OD | 1.7 OD | B35 |
